Tests used:
[1] = biological target: Streptomyces coelicolor RNase J (SCO5745) (Streptomyces coelicolor); assay: AUC; analytical ultracentrifugation, data not shown; conditions not given
[2] = biological target: Streptomyces coelicolor RNase J (SCO5745) (Streptomyces coelicolor); assay: crystal structure; crystals from 27.5% w/v PEG 400, 0.1 M Tris-HCl pH 8.5, 18°C; co-purified RNA bound; space group P4(3)22, two protomers in the asymmetric unit; tetramer by crystallographic 2-fold symmetry

stoichiometry N [1]: 4
stoichiometry N [2]: 4
Substance: Streptomyces coelicolor RNase J (SCO5745) (enzyme)

Source: paper PMC4652760
